Results published in patent publication US20220017627A1 (Bristol-Myers Squibb, published 2022).

Key:
[1] = target: T1, human IL-7Rα expressed on human T cells (whole blood / PBMCs) (human, UniProt P16871 21-239); test: flow cytometry binding, CD8+CD45RA- T cells in whole blood
T1 construct: Native receptor on primary cells; also called CD127
T1 chain: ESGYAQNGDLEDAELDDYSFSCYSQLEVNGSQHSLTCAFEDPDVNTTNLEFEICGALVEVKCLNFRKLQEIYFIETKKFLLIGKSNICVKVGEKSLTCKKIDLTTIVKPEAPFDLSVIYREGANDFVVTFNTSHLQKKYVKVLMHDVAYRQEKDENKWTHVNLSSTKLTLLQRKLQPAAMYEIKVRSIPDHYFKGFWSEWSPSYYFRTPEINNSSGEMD

[2] = target: T2, cynomolgus IL-7Rα expressed on cynomolgus T cells / leukocytes (cynomolgus, UniProt Q38IC7 21-459); test: cell-based or functional assay
T2 sequence: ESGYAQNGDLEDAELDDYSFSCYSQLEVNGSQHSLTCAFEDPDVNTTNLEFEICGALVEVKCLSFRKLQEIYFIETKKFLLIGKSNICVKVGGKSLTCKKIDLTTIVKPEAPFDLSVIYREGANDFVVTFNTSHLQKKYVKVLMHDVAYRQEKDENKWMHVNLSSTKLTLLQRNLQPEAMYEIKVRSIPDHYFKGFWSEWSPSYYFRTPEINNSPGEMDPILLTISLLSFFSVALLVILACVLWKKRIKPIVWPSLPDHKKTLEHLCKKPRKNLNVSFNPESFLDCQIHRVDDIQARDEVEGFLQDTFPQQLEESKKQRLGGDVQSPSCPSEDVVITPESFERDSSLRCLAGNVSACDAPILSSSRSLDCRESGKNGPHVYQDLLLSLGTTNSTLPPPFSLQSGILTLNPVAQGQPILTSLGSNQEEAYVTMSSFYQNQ

[3] = target: T1, human IL-7Rα expressed on human T cells …; test: flow cytometry binding, CD4+CD45RA- T cells in whole blood
hIL-7R (Example 11) [4] = target: T3, hIL-7R (Example 11) (human, UniProt P16871 21-239); test: Biacore, mAb captured on anti-human IgG CM5 chip, hu IL-7R as analyte (top curve 33.3nM), HBS-P+ pH 7.4, 37 C
T3 construct: Called full length hIL-7R for the mRNA display and hIL-7R for the Biacore runs; also called full length hIL-7R; human IL-7R
T3 chain: T1 chain
Source text: (§1) Affinity (KD) of each variant binding to hIL-7R was obtained using this approach, and compared against the enrichment ratio (ER) obtained through NGS heat map analysis for the same variant.

[5] = target: T4, his-tagged human-IL7R extracellular domain construct (human, UniProt P16871 21-239); test: SPR (Biacore T200), antibody captured on protein A, his-tagged ECD as analyte, 37° C., pH 6.0
T4 construct: Generated in house; also called human IL-7Rα; not shown: his tag
T4 chain: T1 chain
Experimental: (§2) Briefly, experiments were performed on a BIACORE™ T200 instrument (GE Healthcare, Chicago, Ill., USA) in a running buffer consisting of 10 mM NaPO4, 130 mM NaCl, 0.05% p20 (PBS-T) at either pH 7.4 or pH 6.0. The chip surface was prepared by immobilizing protein A on flow cell 1, 2, 3, and 4 of a CM5 sensor chip using ethyl(dimethylaminopropyl) carbodiimide/NHS to a density of 4000 RU. […] Purified extracellular domain constructs (generated in house) of his-tagged human-IL7R or cynomolgus-IL7R were tested for binding using a 2 fold serial dilution from 500 nM to 7.8 nM, with 180 s association time and 360 s dissociation time at 30 μl/min. Regeneration between cycles was accomplished using 2×30 second injections of 10 mM glycine-HCL pH 1.5. The data were analyzed using the Biacore T200 Evaluation software (GE Healthcare), and fit to a 1:1 Langmuir model.

[6] = target: T5, his-tagged cynomolgus-IL7R extracellular domain construct (cynomolgus, UniProt Q38IC7 21-240); test: as above
T5 construct: also called cyno IL-7Rα; not shown: his tag
T5 sequence: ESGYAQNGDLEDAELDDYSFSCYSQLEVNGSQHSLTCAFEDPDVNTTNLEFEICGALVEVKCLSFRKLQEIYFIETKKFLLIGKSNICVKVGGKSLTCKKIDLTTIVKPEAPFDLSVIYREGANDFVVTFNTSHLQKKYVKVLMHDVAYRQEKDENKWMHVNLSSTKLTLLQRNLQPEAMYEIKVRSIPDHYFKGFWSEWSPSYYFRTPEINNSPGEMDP
Experimental: as §2

[7] = target: T4, his-tagged human-IL7R extracellular …; test: SPR (Biacore T200), pH 6.0 against pH 7.4
Experimental: as §2

[8] = target: T5, his-tagged cynomolgus-IL7R …; test: SPR (Biacore T200), pH 6.0 against pH 7.4
Experimental: as §2

[9] = target: T4, his-tagged human-IL7R extracellular …; test: SPR (Biacore T200), antibody captured on protein A, his-tagged ECD as analyte, 37° C., pH 7.4
Experimental: as §2

[10] = target: T5, his-tagged cynomolgus-IL7R …; test: as above
Experimental: as §2

[11] = target: T2, cynomolgus IL-7Rα expressed on …; test: flow cytometry, occupancy of IL-7Ra on CD4+CD45RA+ T cells of cynomolgus monkeys after a single i.v. dose, against serum concentration
Experimental: To confirm the above cross-reactivity data, cellular binding and functional blockade were also assessed. […] Then, at day 8 post-administration, PBMCs were isolated from the animals.

[12] = target: T1, human IL-7Rα expressed on human T cells …; test: cell-based or functional assay
hIL-7R (Example 11) [13] = target: T3, hIL-7R (Example 11); test: SPR (Biacore), reference of the ratio [cont'd]
Source text: as §1

[14] = target: T1, human IL-7Rα expressed on human T cells …; test: flow cytometry binding, CD4+CD45RA+ T cells in whole blood
[15] = target: T1, human IL-7Rα expressed on human T cells …; test: cell-based or functional assay
[16] = target: T1, human IL-7Rα expressed on human T cells …; test: flow cytometry binding, CD8+CD45RA+ T cells in whole blood

EC50 [1]: 1.9 nM
IC50 of IL-7 mediated pSTAT5 activation against serum antibody concentration, cynomolgus monkeys [2]: ~2
EC50 [3]: 3.3 nM
Kd (hIL-7R (Example 11) [4]): 1.4 nM
koff (hIL-7R (Example 11) [4]): 0.00152 s⁻¹
kon (hIL-7R (Example 11) [4]): 1.09e+06 M⁻¹ s⁻¹
Kd [5]: 5.3 nM
koff [5]: 0.0013 s⁻¹
kon [5]: 240000 M⁻¹ s⁻¹
Kd [6]: 7 nM
koff [6]: 0.0016 s⁻¹
kon [6]: 230000 M⁻¹ s⁻¹
fold weaker binding at pH 6.0 than at pH 7.4 [7]: ~4 fold
fold weaker binding at pH 6.0 than at pH 7.4 [8]: ~4 fold
Kd [9]: 1.3 nM
koff [9]: 0.0004 s⁻¹
kon [9]: 310000 M⁻¹ s⁻¹
Kd [10]: 1.7 nM
koff [10]: 0.0005 s⁻¹
kon [10]: 290000 M⁻¹ s⁻¹
EC50 (read off the curve) [11]: ~40 ng/mL
pSTAT5 IC50, IL-7 stimulated CD4+CD45RA+ T cells, CD (n = 10) [12]: 0.36 nM
pSTAT5 IC50, IL-7 stimulated CD4+CD45RA+ T cells, NHV (n = 19) [12]: 0.6 nM
pSTAT5 IC50, IL-7 stimulated CD4+CD45RA+ T cells, UC (n = 21) [12]: 0.34 nM
pSTAT5 IC50, IL-7 stimulated CD4+CD45RA- T cells, CD (n = 10) [12]: 0.36 nM
pSTAT5 IC50, IL-7 stimulated CD4+CD45RA- T cells, NHV (n = 19) [12]: 0.52 nM
pSTAT5 IC50, IL-7 stimulated CD4+CD45RA- T cells, UC (n = 21) [12]: 0.28 nM
pSTAT5 IC50, IL-7 stimulated CD8+CD45RA+ T cells, CD (n = 10) [12]: 0.29 nM
pSTAT5 IC50, IL-7 stimulated CD8+CD45RA+ T cells, NHV (n = 19) [12]: 0.43 nM
pSTAT5 IC50, IL-7 stimulated CD8+CD45RA+ T cells, UC (n = 21) [12]: 0.29 nM
pSTAT5 IC50, IL-7 stimulated CD8+CD45RA- T cells, CD (n = 10) [12]: 0.23 nM
pSTAT5 IC50, IL-7 stimulated CD8+CD45RA- T cells, NHV (n = 19) [12]: 0.38 nM
pSTAT5 IC50, IL-7 stimulated CD8+CD45RA- T cells, UC (n = 21) [12]: 0.22 nM
KD Relative to 18B1 (hIL-7R (Example 11) [13]): 1
EC50 [14]: 1.4 nM
pSTAT5 IC50, CD4+CD45RA+ T cells in whole blood, IL-7 (0.25 ng/mL) [15]: 0.6 nM
pSTAT5 IC50, CD4+CD45RA+ T cells in whole blood, IL-7 (2.0 ng/mL) [15]: 2.1 nM
EC50 [16]: 2 nM
B1: Anti-IL-7R Antibody (Antibody A) (antibody, human IgG1, kappa, V domains shown)
VH: EVQLVESGGGLVQPGRSLRLSCAASGFTFDDHAMHWVRQAPGKGLEWVSGISWNSRGIGYADSVKGRFTIFRDNAKNSLYLQMNSLRAEDTALYYCAKDEYSRGYYVLDVWGQGTTVTVSS
VL: AIQLTQSPSSLSASVGDRVTITCRASQGISSALAWYQQKPGKAPKLLIYDASSLESGVPSRFSGSGSGTDFTLTISSLQPEDFATYYCQQFNSYPLWITFGQGTRLEIKR
notes: also called 18B1; 18B1 antibody
